The supplement of paper PMC9112550, “Optimization of the antimicrobial peptide Bac7 by deep mutational scanning” (BMC Biology, 2022)

system: Escherichia coli TOP10; assay: shrunken log2 fold change of peptide-encoding DNA abundance (4.5 h post-induction vs induction); higher = less antimicrobial activity (less host growth inhibition); details: time post-induction: 4.5 h; library: site-saturation at positions 5, 18, 19, 20
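Also: peptides expressed intracellularly from a pBAD plasmid library in pooled LB shake-flask culture, induced with 0.3% L-arabinose, DNA abundance read by NGS, three biological replicates, DESeq2 with apeglm shrinkage.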

Row | Sequence | shrunken log2 fold change
1 | RRIRLRPPRLPRPRPRPSIPPRP | -0.711
2 | RRIRKRPPRLPRPRPRPYAIPRP | 0.0303
3 | RRIRGRPPRLPRPRPRPNDDPRP | 0.349
4 | RRIRWRPPRLPRPRPRPKDAPRP | 0.362
5 | RRIRNRPPRLPRPRPRPPNPPRP | 0.411
6 | RRIRTRPPRLPRPRPRPIIWPRP | -0.0836
7 | RRIRHRPPRLPRPRPRPILAPRP | 0.00463
8 | RRIRARPPRLPRPRPRPRWYPRP | -0.0331
9 | RRIRYRPPRLPRPRPRPVMYPRP | -0.134
10 | RRIRKRPPRLPRPRPRPVCQPRP | 0.436
11 | RRIRYRPPRLPRPRPRPDDLPRP | -0.0432
12 | RRIRIRPPRLPRPRPRPEKQPRP | 0.0192
13 | RRIRVRPPRLPRPRPRPRFSPRP | -0.17
14 | RRIRGRPPRLPRPRPRPKTLPRP | 0.872
15 | RRIRQRPPRLPRPRPRPKCYPRP | -0.234
16 | RRIRQRPPRLPRPRPRPADSPRP | -0.00947
17 | RRIRKRPPRLPRPRPRPKTGPRP | 0.821
18 | RRIRIRPPRLPRPRPRPAAAPRP | 0.286
19 | RRIRLRPPRLPRPRPRPKNQPRP | -0.202
20 | RRIRARPPRLPRPRPRPTKNPRP | 0.429
21 | RRIRERPPRLPRPRPRPATRPRP | 0.102
22 | RRIRGRPPRLPRPRPRPVKVPRP | 0.425
23 | RRIRRRPPRLPRPRPRPREWPRP | 1.03
24 | RRIRGRPPRLPRPRPRPSFDPRP | 0.44
25 | RRIRIRPPRLPRPRPRPCRSPRP | -0.365

Row | Sequence | shrunken log2 fold change
26 | RRIRGRPPRLPRPRPRPVGLPRP | 0.954
27 | RRIRDRPPRLPRPRPRPCNYPRP | -0.475
28 | RRIRARPPRLPRPRPRPFDEPRP | 0.194
29 | RRIRLRPPRLPRPRPRPRAVPRP | 0.821
30 | RRIRFRPPRLPRPRPRPLPLPRP | 0.0222
31 | RRIRFRPPRLPRPRPRPRIFPRP | -0.102
32 | RRIRNRPPRLPRPRPRPMKWPRP | 0.0456
33 | RRIRCRPPRLPRPRPRPSPFPRP | -0.0566
34 | RRIRFRPPRLPRPRPRPPPTPRP | 1.39
35 | RRIRARPPRLPRPRPRPHCVPRP | 0.0669
36 | RRIRLRPPRLPRPRPRPNKNPRP | -0.366
37 | RRIRMRPPRLPRPRPRPPKPPRP | 0.717
38 | RRIRPRPPRLPRPRPRPVDQPRP | -0.256
39 | RRIRPRPPRLPRPRPRPHPEPRP | 0.203
40 | RRIRYRPPRLPRPRPRPFKRPRP | -0.294
41 | RRIRARPPRLPRPRPRPDFIPRP | -0.0493
42 | RRIRQRPPRLPRPRPRPITVPRP | -0.143
43 | RRIRTRPPRLPRPRPRPCMDPRP | -0.459
44 | RRIRHRPPRLPRPRPRPYCWPRP | -0.352
45 | RRIRLRPPRLPRPRPRPFYKPRP | -0.349
46 | RRIRIRPPRLPRPRPRPQWGPRP | -0.000367
47 | RRIRIRPPRLPRPRPRPFDSPRP | 0.0157
48 | RRIRMRPPRLPRPRPRPEKNPRP | 2.16
49 | RRIRYRPPRLPRPRPRPRGGPRP | 0.139
50 | RRIRARPPRLPRPRPRPLGYPRP | 0.223

Row | Sequence | shrunken log2 fold change
51 | RRIRRRPPRLPRPRPRPMQPPRP | 0.0874
52 | RRIRRRPPRLPRPRPRPLLKPRP | 0.415
53 | RRIRHRPPRLPRPRPRPYPNPRP | -0.014
54 | RRIRLRPPRLPRPRPRPEGWPRP | 0.862
55 | RRIRFRPPRLPRPRPRPAAIPRP | 1.19
56 | RRIRVRPPRLPRPRPRPTVWPRP | 0.408
57 | RRIRFRPPRLPRPRPRPELSPRP | 0.0455
58 | RRIRRRPPRLPRPRPRPMMGPRP | 0.235
59 | RRIRSRPPRLPRPRPRPERWPRP | 1.14
60 | RRIRKRPPRLPRPRPRPWLYPRP | 0.00941
61 | RRIRDRPPRLPRPRPRPFINPRP | -0.337
62 | RRIRMRPPRLPRPRPRPYCNPRP | -0.189
63 | RRIRIRPPRLPRPRPRPTYSPRP | -0.408
64 | RRIRNRPPRLPRPRPRPVIIPRP | -0.0963
65 | RRIRCRPPRLPRPRPRPKKRPRP | 0.156
66 | RRIRCRPPRLPRPRPRPCRDPRP | -0.142
67 | RRIRPRPPRLPRPRPRPNTVPRP | -0.411
68 | RRIRCRPPRLPRPRPRPDEFPRP | -0.169
69 | RRIRKRPPRLPRPRPRPVFNPRP | 0.117
70 | RRIRQRPPRLPRPRPRPNEEPRP | 2.87
71 | RRIRWRPPRLPRPRPRPYIQPRP | -1.07
72 | RRIRQRPPRLPRPRPRPPLKPRP | -0.0174
73 | RRIRCRPPRLPRPRPRPEVSPRP | 0.282
74 | RRIRNRPPRLPRPRPRPMMNPRP | 0.274
75 | RRIRWRPPRLPRPRPRPKTMPRP | 0.35

Row | Sequence | shrunken log2 fold change
76 | RRIRLRPPRLPRPRPRPYIAPRP | -0.261
77 | RRIRSRPPRLPRPRPRPDRVPRP | -0.144
78 | RRIRVRPPRLPRPRPRPCFHPRP | -0.395
79 | RRIRIRPPRLPRPRPRPWYRPRP | -0.678
80 | RRIRLRPPRLPRPRPRPSTHPRP | -0.59
81 | RRIRCRPPRLPRPRPRPCGRPRP | -0.184
82 | RRIRLRPPRLPRPRPRPFEVPRP | 0.0377
83 | RRIRNRPPRLPRPRPRPNMPPRP | -0.407
84 | RRIRARPPRLPRPRPRPCNVPRP | -0.0688
85 | RRIRYRPPRLPRPRPRPFEKPRP | 0.021
86 | RRIRGRPPRLPRPRPRPQTFPRP | 0.762
87 | RRIRIRPPRLPRPRPRPFCPPRP | -0.463
88 | RRIRCRPPRLPRPRPRPPFAPRP | 0.455
89 | RRIRNRPPRLPRPRPRPEADPRP | 0.0747
90 | RRIRTRPPRLPRPRPRPNFGPRP | -0.0173
91 | RRIRIRPPRLPRPRPRPDIAPRP | -0.659
92 | RRIRHRPPRLPRPRPRPKIGPRP | 0.0776
93 | RRIRFRPPRLPRPRPRPGNTPRP | -0.12
94 | RRIRNRPPRLPRPRPRPPFPPRP | 0.309
95 | RRIRQRPPRLPRPRPRPPWMPRP | 0.172
96 | RRIRWRPPRLPRPRPRPIITPRP | -0.827
97 | RRIRNRPPRLPRPRPRPDTKPRP | -0.0152
98 | RRIRDRPPRLPRPRPRPTISPRP | -0.0421
99 | RRIRFRPPRLPRPRPRPYLDPRP | -0.26
100 | RRIRPRPPRLPRPRPRPMIHPRP | -0.696

Row | Sequence | shrunken log2 fold change
101 | RRIRDRPPRLPRPRPRPLEAPRP | 0.679
102 | RRIRIRPPRLPRPRPRPAMSPRP | -0.0178
103 | RRIRDRPPRLPRPRPRPSFSPRP | -0.0351
104 | RRIRARPPRLPRPRPRPCHNPRP | -0.161
105 | RRIRERPPRLPRPRPRPEFPPRP | -0.00557
106 | RRIRWRPPRLPRPRPRPEWPPRP | 0.956
107 | RRIRARPPRLPRPRPRPCCDPRP | 0.404
108 | RRIRWRPPRLPRPRPRPEQLPRP | 0.00937
109 | RRIRSRPPRLPRPRPRPPYPPRP | 0.0516
110 | RRIRERPPRLPRPRPRPTQGPRP | 0.555
111 | RRIRCRPPRLPRPRPRPNMFPRP | -0.529
112 | RRIRYRPPRLPRPRPRPMKRPRP | -0.0321
113 | RRIRPRPPRLPRPRPRPNGPPRP | -0.027
114 | RRIRPRPPRLPRPRPRPTQLPRP | 0.166
115 | RRIRQRPPRLPRPRPRPGVKPRP | 0.0204
116 | RRIRYRPPRLPRPRPRPEKTPRP | 0.0635
117 | RRIRSRPPRLPRPRPRPYYAPRP | -0.551
118 | RRIRKRPPRLPRPRPRPNTSPRP | 0.0472
119 | RRIRKRPPRLPRPRPRPMYSPRP | -0.11
120 | RRIRSRPPRLPRPRPRPNRYPRP | -0.296
121 | RRIRRRPPRLPRPRPRPWVMPRP | -0.123
122 | RRIRARPPRLPRPRPRPYRNPRP | -0.222
123 | RRIRIRPPRLPRPRPRPMLLPRP | 0.0902
124 | RRIRSRPPRLPRPRPRPTTVPRP | 0.14
125 | RRIRARPPRLPRPRPRPMFWPRP | 0.19

Row | Sequence | shrunken log2 fold change
126 | RRIRQRPPRLPRPRPRPCLNPRP | -0.632
127 | RRIRYRPPRLPRPRPRPNINPRP | -1.37
128 | RRIRMRPPRLPRPRPRPRMDPRP | 0.356
129 | RRIRGRPPRLPRPRPRPIGYPRP | -0.017
130 | RRIRRRPPRLPRPRPRPDQKPRP | -0.0181
131 | RRIRIRPPRLPRPRPRPQHAPRP | 0.16
132 | RRIRQRPPRLPRPRPRPACIPRP | -0.165
133 | RRIRNRPPRLPRPRPRPFSSPRP | -0.0316
134 | RRIRLRPPRLPRPRPRPVEFPRP | 0.0713
135 | RRIRMRPPRLPRPRPRPQECPRP | 0.313
136 | RRIRFRPPRLPRPRPRPQKVPRP | -0.194
137 | RRIRDRPPRLPRPRPRPQVEPRP | 0.0699
138 | RRIRGRPPRLPRPRPRPEHCPRP | 0.549
139 | RRIRLRPPRLPRPRPRPCPDPRP | -0.136
140 | RRIRERPPRLPRPRPRPVMGPRP | -0.123
141 | RRIRPRPPRLPRPRPRPFHDPRP | 0.000303
142 | RRIRPRPPRLPRPRPRPYNMPRP | -1.44
143 | RRIRTRPPRLPRPRPRPFHLPRP | -0.0758
144 | RRIRRRPPRLPRPRPRPYYYPRP | -0.9
145 | RRIRSRPPRLPRPRPRPKRFPRP | 0.0952
146 | RRIRARPPRLPRPRPRPRQHPRP | 0.278
147 | RRIRIRPPRLPRPRPRPSEVPRP | 0.0174
148 | RRIRNRPPRLPRPRPRPGSTPRP | -0.145
149 | RRIRCRPPRLPRPRPRPYDSPRP | 0.00489
150 | RRIRIRPPRLPRPRPRPPANPRP | -0.0976
